Measured values reported in patent US20040142894, “Modulation of cellular proliferation” (published 2004).

Target: T1, HiNF-P (enriched chromatographic fraction, HeLa) (Homo sapiens, UniProt Q9BQA5 Q9BQA5:1-517)
T1 sequence: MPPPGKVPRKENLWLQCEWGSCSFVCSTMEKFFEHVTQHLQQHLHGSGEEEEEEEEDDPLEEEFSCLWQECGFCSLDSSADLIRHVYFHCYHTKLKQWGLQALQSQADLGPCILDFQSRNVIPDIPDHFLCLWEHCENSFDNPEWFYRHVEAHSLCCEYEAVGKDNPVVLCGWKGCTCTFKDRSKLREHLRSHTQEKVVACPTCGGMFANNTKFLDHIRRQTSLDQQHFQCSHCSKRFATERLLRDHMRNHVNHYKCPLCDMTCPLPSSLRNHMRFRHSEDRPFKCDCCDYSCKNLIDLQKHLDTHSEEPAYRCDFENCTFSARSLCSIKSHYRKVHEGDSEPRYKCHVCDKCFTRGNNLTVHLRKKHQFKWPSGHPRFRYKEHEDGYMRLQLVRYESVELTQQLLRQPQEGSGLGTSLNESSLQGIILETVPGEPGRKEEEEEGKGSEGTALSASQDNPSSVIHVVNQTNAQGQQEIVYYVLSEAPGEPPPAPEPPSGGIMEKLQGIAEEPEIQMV
Assay: UV cross-linking, 65 kDa; 100 uM Zn2+ and Mg2+
Details: label: 32P-dCTP
Protocol: FIG. 6B is a representation of an autoradiogram showing UV cross-linking of HiNF-P/Site II complexes. Oligonucleotides spanning wild type (WT) and mutant (Pmut) Site II sequences were labeled with BrdUTP and ³²P-dCTP then incubated with a fraction (7.5 μl; 0.4M KCl) containing enriched HiNF-P binding activity. The reaction mixture was exposed to UV light (305 nm) for 60 minutes and then digested with DNase I and MNase. Cross-linked, labeled proteins were analyzed using 10% SDS-PAGE and subjected to autoradiography. Molecular weight makers are shown at the left. The arrow indicates the 65 kDa HiNF-P-DNA complex.
Ultraviolet cross-linking experiments were performed by adapting a method described in Ausubel, F. M. et al. (Current Protocols in Molecular Biology. Greene and Wiley, New York, 1989). A radiolabeled and BrdU-substituted probe was prepared by incubating 20 pmol of partially double-stranded HiNF-P-specific oligonucleotide (top strand: 5′-CGC TTT CGG-3′, SEQ ID NO:13; Bottom strand: 5′-CAAGAGTATCGGACCAGATTGAAAACCGAAAGCG-3′, SEQ ID NO:14) with 1 μl of 50× dNTP/BrdUTP solution (containing 50 μM DATP, 50 μM dGTP, 37.5 μM dTTP and 12.5 μM BrdUTP), 150 μCi α-³²P-dCTP and 1 μl of a solution containing 5 mM DTT and 1 μg/μl BSA, in a total reaction volume of 25 μl. […] Following nuclease digestion, the products were analyzed by 10% SDS-PAGE.

B1: BrdU-substituted Site II probe (dsDNA)
DNA 1: CAAGAGTATCGGACCAGATTGAAAACCGAAAGCG
DNA 2: CGCTTTCGGTTTTCAATCTGGTCCGATACTCTTG
modifications: partial BrdU substitution for T in filled-in strand
**Q.** Does B1 bind?
**A.** binds
